The assay concerns the target T1, PAR-2 (Homo sapiens, UniProt P55085).
T1 sequence (P55085 26-397): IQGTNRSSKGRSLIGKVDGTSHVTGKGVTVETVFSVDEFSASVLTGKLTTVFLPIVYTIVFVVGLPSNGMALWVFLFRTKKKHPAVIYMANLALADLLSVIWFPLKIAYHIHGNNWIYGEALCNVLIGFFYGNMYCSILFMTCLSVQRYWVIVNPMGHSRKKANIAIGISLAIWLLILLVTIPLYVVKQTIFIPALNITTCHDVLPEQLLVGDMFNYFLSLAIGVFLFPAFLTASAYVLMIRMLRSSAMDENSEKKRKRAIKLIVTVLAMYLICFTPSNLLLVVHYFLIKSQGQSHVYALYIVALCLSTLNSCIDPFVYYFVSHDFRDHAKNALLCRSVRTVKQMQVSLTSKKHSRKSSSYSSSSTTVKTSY
The experiment in a line: Binding to PAR-2 transfected HEK293 cells. The assay is classed as cell-based. More on the design: expressed in transfected cells; host or cells: HEK293. The settings on record: for EC50: Fab, read-out: Binding of Fab to HEK-PAR-2 (#3) (3RBO64) EC50; for Ratio of EC50 Fab EC50 IgG: HEK-PAR-2 binding. An excerpt:
These Fabs were then converted to the IgG4_Pro (“IgG4p”) format. The IgG4_Pro antibodies consist of the variable VH and VL regions derived from corresponding Fabs fused to the constant regions of human IgG4 including a Ser241Pro mutation in the hinge region of the H-chain. The proline substitution in the hinge region is known to prevent the formation of half-molecules in natural human IgG4 molecules (Angal et al. (1993) Molec. Immunol. 30:105-108).

B1: Ab4997: affinity matured from Ab3777, H-CDR2 optimized; heavy chain SEQ ID NO:23, light chain SEQ ID NO:6 (antibody, V domains shown)
VH: QVQLVESGGGLVQPGGSLRLSCAASGFTFSSYAMNWVRQAPGKGLEWVSAISYNGKLKGYADSVKGRFTISRDNSKNTLYLQMNSLRAEDTAVYYCARIQNDPMDVWGQGTLVTVSS
VL: DIELTQPPSVSVAPGQTARISCSGDNLGKKYVQWYQQKPGQAPVLVIYDDSNRPSGIPERFSGSNSGNTATLTISGTQAEDEADYYCSSWDVGSDGWVFGGGTKLTVLGQ
modifications: Antibody modified via affinity maturation; Antibody identified via phage display
Take B1: the EC50 was 3.03 nM and the “Ratio of EC50 Fab EC50 IgG” value was determined as 8.0.

B2: Ab5003: affinity matured from Ab3777, H-CDR2 optimized; heavy chain SEQ ID NO:24, light chain SEQ ID NO:6 (antibody, V domains shown)
VH: QVQLVESGGGLVQPGGSLRLSCAASGFTFSSYAMNWVRQAPGKGLEWVSAISYKGHLTGYADSVKGRFTISRDNSKNTLYLQMNSLRAEDTAVYYCARIQNDPMDVWGQGTLVTVSS
VL: DIELTQPPSVSVAPGQTARISCSGDNLGKKYVQWYQQKPGQAPVLVIYDDSNRPSGIPERFSGSNSGNTATLTISGTQAEDEADYYCSSWDVGSDGWVFGGGTKLTVLGQ
modifications: Antibody modified via affinity maturation; Antibody identified via phage display
Turning to B2, the EC50 was found to be 7.03 nM and the “Ratio of EC50 Fab EC50 IgG” value is 15.3.

B3: Ab5007: affinity matured from Ab3777, H-CDR2 optimized; heavy chain SEQ ID NO:26, light chain SEQ ID NO:6 (antibody, V domains shown)
VH: QVQLVESGGGLVQPGGSLRLSCAASGFTFSSYAMNWVRQAPGKGLEWVSAISFSGHLTGYADSVKGRFTISRDNSKNTLYLQMNSLRAEDTAVYYCARIQNDPMDVWGQGTLVTVSS
VL: DIELTQPPSVSVAPGQTARISCSGDNLGKKYVQWYQQKPGQAPVLVIYDDSNRPSGIPERFSGSNSGNTATLTISGTQAEDEADYYCSSWDVGSDGWVFGGGTKLTVLGQ
modifications: Antibody modified via affinity maturation; Antibody identified via phage display
Regarding B3, the EC50 was found to be 9.66 nM and the “Ratio of EC50 Fab EC50 IgG” value came out at 19.3.

B4: Ab4994: affinity matured from Ab3777, H-CDR2 optimized; heavy chain SEQ ID NO:21, light chain SEQ ID NO:6 (antibody, V domains shown)
VH: QVQLVESGGGLVQPGGSLRLSCAASGFTFSSYAMNWVRQAPGKGLEWVSAISYSGHLTGYADSVKGRFTISRDNSKNTLYLQMNSLRAEDTAVYYCARIQNDPMDVWGQGTLVTVSS
VL: DIELTQPPSVSVAPGQTARISCSGDNLGKKYVQWYQQKPGQAPVLVIYDDSNRPSGIPERFSGSNSGNTATLTISGTQAEDEADYYCSSWDVGSDGWVFGGGTKLTVLGQ
modifications: Antibody modified via affinity maturation; Antibody identified via phage display
As to B4, the EC50 came to 1.9 nM and the “Ratio of EC50 Fab EC50 IgG” value is on record as 4.8.

A word on the EC50: it is the concentration at which the effect is half-maximal.

The values are drawn from US20100119506A1, “Effectors of PAR-2 Activation and Their Use in the Modulation of Inflammation” (BOEHRINGER INGELHEIM INTERNATIONAL GMBH, priority 2008, published 2010).
